Assays:
[1] = target: human recombinant HMGB1 protein (high-mobility group box-1) (human) (UniProt P09429); assay: SPR; human recombinant HMGB1 immobilised on a CMDH chip (immobilisation buffer 10 mM S.A., pH 4.5); analytes flowed at 30 uL/min; running buffer PBS pH 7.4; association and dissociation 3 min each; room temperature; Reichert SR7500DC, Scrubber2
[2] = target: human recombinant HMGB1 protein (high-mobility group box-1) (human) (UniProt P09429)

Chain of human recombinant HMGB1 protein (high-mobility group box-1) (human) (P09429 whole entry): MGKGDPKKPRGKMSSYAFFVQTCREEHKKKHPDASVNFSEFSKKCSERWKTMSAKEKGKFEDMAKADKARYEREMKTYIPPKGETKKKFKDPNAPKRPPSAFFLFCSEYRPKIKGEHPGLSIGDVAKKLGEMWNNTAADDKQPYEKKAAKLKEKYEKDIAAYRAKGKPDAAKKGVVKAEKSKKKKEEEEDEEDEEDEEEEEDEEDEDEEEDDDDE

| Kd [1] [nM] | reduction of HUVEC proliferation in Transwell co-culture with U87MG (CCK-8, 24 h, 100 uM GL equivalent) [2] [%] | Substance |
| --- | --- | --- |
| 595 |  | lactoferrin-glycyrrhizin conjugate Lf-GL (1:4) |
| 32.3 |  | lactoferrin-glycyrrhizin conjugate Lf-GL (1:15) |
| 23.1 | 13 | lactoferrin-glycyrrhizin conjugate Lf-GL (1:10) |
| 165 | 8.2 | lactoferrin human (Lf) (natural protein) |

— PMC10200060, “Inhibition of DAMP actions in the tumoral microenvironment using lactoferrin-glycyrrhizin conjugate for glioblastoma therapy” (Biomaterials Research, 2023)
